This is an account of results in patent US20030040044A1.

In assay [1] the target is αVβ3 integrin on human cells (human) (UniProt P06756).
Assay [2] shares this target. The assay is described as follows: saturation binding of 125-I ReoPro to M21 cells (express αvβ3 and αvβ5; ReoPro showed no binding to αvβ5), n = 3.
Assay [3] has the same target. Briefly: saturation binding of 125-I ReoPro to A375S2 cells (express αvβ3 and αvβ5; ReoPro showed no binding to αvβ5), n = 3.
Assay [4] has the same target. Briefly: saturation binding of 125-I ReoPro to M21 cells, Bmax, n = 7.
The target is the same in assay [5]. This is another data set of the same source.
For assay [6] the target is unchanged. Briefly: saturation binding of 125-I ReoPro to A375S2 cells, Bmax, n = 6.

As a reminder, the Kd is the constant that tells how readily two partners part at equilibrium. Low values mean higher affinity, high ones lower affinity.

B1: ReoPro (Fab, INN chains, looked up, V domains shown)
VH: EVQLQQSGTVLARPGASVKMSCEASGYTFTNYWMHWVKQRPGQGLEWIGAIYPGNSDTSYIQKFKGKAKLTAVTSTTSVYMELSSLTNEDSAVYYCTLYDGYYVFAYWGQGTLVTVSA
VL: EIVLTQSPVTLSVTPGDSVSLSCRASRDISNNLHWFQQTSHESPRLLIKYASQSMSGIPSRFSGSGSGTDFTLSINSVETEDFGMYFCQQTNSWPYTFGGGTKLEIK
modifications: Fab 125I label in some assays
In assay [1], B1 displayed an Adhesion (%) of HUVEC to fibrin (% of adhesion without antibody) of 35.8, an Adhesion (%) of HUVEC to fibrinogen (% of adhesion without antibody) of 8.7, an Adhesion (%) of HUVEC to gelatin (% of adhesion without antibody) of 2.5 and an Adhesion (%) of HUVEC to vitronectin (% of adhesion without antibody) of 54.9. Moreover, the dissociation constant (Kd) in assay [2] turned out to be 10 nM. Further, the dissociation constant (Kd) in assay [3] was 22 nM. Moreover, the Receptors per cell (receptors per cell) in assay [4] came to 660000. Further, in assay [5], the Adhesion (%) of A375S.2 cells to fibrin (% of adhesion without antibody) stood at 12.9, the Adhesion (%) of A375S.2 cells to fibrinogen (% of adhesion without antibody) amounted to 6.5, the Adhesion (%) of A375S.2 cells to gelatin (% of adhesion without antibody) was found to be 6 and the Adhesion (%) of A375S.2 cells to vitronectin (% of adhesion without antibody) was 38.1. The Receptors per cell (receptors per cell) in assay [6] was 370000.
